Starred links: 1 amine or outer side, 2 acyl side, 3 side chain; linkers in the order of their positions; H or OH if unused. Positions of bridges follow the written chain, without caps; N, C: chain ends. Non-standard residues stand in square brackets, D forms with d. Primed or numbered codes have the meaning given here. PyrS2″ = (S)-3-amino-1-((pent-4-en-1-yloxy)carbonyl)pyrrolidine-3-carboxylic acid (stapling residue), C=CCCCOC(=O)N1CC[C@@](N[*:1])(C(=O)[*:2])C1; B5(4) = 2,2-bis(4-pentenyl)glycine = 2-amino-2-(pent-4-en-1-yl)hept-6-enoic acid (stitching residue), C=CCCCC(CCCC=C)(N[*:1])C(=O)[*:2]; (EtSSHex)AspE = (S)-2-amino-4-(2-(hexyldisulfaneyl)ethoxy)-4-oxobutanoic acid, CCCCCCSSCCOC(=O)C[C@H](N[*:1])C(=O)[*:2]; B5 = 2-amino-2-(pent-4-en-1-yl)hept-6-enoic acid, C=CCCCC(CCCC=C)(N[*:1])C(=O)[*:2]; Phe(4-Cl) = N[C@@H](Cc1ccc(Cl)cc1)C(=O)O; Phe(4-NH2) = Nc1ccc(C[C@H](N)C(=O)O)cc1; Phe(2-F) = N[C@@H](Cc1ccccc1F)C(=O)O; Bta = N[C@@H](Cc1csc2ccccc12)C(=O)O; αAllylPro = C=CC[C@@]1(C(=O)O)CCCN1; tBuAla = CC(C)(C)C[C@H](N)C(=O)O; 2Thi = N[C@@H](Cc1cccs1)C(=O)O; 3Thi = N[C@@H](Cc1ccsc1)C(=O)O; S8 = C=CCCCCCC[C@](C)(N)C(=O)O; hSer = N[C@@H](CCO)C(=O)O
T1: B-cat-Halo (beta-catenin HaloTag NanoBRET construct expressed in HEK293 cells) (UniProt P35222 1-781)
T1 sequence (looked up): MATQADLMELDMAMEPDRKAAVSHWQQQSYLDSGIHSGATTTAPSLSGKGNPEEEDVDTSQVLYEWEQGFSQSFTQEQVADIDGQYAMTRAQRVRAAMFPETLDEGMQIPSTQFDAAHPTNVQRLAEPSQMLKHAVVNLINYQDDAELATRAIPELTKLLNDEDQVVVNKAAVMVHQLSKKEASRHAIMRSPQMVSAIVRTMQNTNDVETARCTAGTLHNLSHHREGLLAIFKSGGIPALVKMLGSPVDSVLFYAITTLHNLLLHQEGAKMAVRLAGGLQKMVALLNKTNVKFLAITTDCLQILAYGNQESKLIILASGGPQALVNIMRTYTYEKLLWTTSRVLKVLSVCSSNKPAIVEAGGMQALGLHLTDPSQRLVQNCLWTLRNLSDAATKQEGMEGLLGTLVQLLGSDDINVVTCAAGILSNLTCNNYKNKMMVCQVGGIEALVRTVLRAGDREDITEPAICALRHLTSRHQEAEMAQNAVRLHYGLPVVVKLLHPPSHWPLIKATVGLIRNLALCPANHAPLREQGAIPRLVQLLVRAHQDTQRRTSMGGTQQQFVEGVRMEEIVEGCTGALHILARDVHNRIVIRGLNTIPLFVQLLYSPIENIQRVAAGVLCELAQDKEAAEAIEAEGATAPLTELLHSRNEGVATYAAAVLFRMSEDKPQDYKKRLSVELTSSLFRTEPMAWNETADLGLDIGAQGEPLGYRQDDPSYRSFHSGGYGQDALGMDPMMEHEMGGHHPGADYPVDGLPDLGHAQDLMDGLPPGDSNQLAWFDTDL

T2: full-length beta-Catenin (Uniprot ID P35222) (Homo sapiens (Human), UniProt P35222 1-781)
T2 construct: the AlphaScreen used a Histidine (Nickel Chelate) detection kit, so a His tag is likely but not described; also called B-Catenin; bCat
T2 sequence: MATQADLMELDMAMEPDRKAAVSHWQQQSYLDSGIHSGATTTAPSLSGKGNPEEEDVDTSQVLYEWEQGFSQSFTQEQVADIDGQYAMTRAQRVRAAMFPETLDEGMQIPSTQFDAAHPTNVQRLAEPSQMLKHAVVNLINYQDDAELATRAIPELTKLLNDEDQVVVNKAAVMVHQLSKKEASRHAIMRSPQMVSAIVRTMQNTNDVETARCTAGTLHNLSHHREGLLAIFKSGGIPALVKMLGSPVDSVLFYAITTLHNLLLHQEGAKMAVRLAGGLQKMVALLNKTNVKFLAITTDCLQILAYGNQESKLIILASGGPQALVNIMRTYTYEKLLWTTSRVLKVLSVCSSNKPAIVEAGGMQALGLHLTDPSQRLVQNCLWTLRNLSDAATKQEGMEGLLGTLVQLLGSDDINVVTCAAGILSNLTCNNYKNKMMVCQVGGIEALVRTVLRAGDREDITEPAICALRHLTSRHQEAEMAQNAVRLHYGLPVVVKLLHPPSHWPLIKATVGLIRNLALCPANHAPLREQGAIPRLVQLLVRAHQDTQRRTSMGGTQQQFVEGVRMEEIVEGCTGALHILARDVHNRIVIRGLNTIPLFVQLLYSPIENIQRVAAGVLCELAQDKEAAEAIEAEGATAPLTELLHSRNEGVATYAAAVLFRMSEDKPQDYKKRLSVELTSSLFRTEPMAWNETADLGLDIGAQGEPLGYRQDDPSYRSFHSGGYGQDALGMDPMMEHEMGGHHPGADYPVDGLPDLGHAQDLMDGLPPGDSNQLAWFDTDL

B1: I-291 (peptide)
peptide: XDAXDDAAFVXFWA
modifications: not fully specified; N-terminal acetyl (Ac); C-terminal amide (NH2); PL3 at 1, B5 at 4, S8 at 11; stapled PL3-B5 and B5-S8
notes: Ac-PL3-Asp-Ala-B5-Asp-Asp-Ala-Ala-Phe-Val-S8-Phe-Trp-Ala-NH2; stapled peptide composition
B2: I-292 (peptide)
peptide: XDAXDDAAFVXFWA
modifications: not fully specified; N-terminal acetyl (Ac); C-terminal amide (NH2); PL3 at 1, B5 at 4, S8 at 11; stapled PL3-B5 and B5-S8
notes: as for B1
B3: I-316 (peptide)
peptide: Ac-[αAllylPro]DA[B5]DDAAFQ[S8]FWA-NH2
modifications: staple 1-4, 4-11
notes: Ac-PL3-Asp-Ala-B5-Asp-Asp-Ala-Ala-Phe-Gln-S8-Phe-Trp-Ala-NH2; stapled peptide composition
B4: I-294 (peptide)
peptide: Ac-[αAllylPro]DA[B5(4)]DDAAFQ[S8]F[Bta]Q-NH2
modifications: staple 1-4, 4-11
notes: Ac-PL3-Asp-Ala-B5-Asp-Asp-Ala-Ala-Phe-Gln-S8-Phe-BztA-Gln-NH2; stapled peptide composition
B5: I-299 (peptide)
peptide: Ac-[αAllylPro]D[hSer][B5(4)]DDAAFQ[S8]F[Bta]A-NH2
modifications: staple 1-4, 4-11
notes: Ac-PL3-Asp-Hse-B5-Asp-Asp-Ala-Ala-Phe-Gln-S8-Phe-BztA-Ala-NH2; stapled peptide composition
B6: I-309 (peptide)
peptide: Ac-[αAllylPro]DA[B5]DDAA[Phe(4-Cl)]V[S8]FWQ-NH2
modifications: staple 1-4, 4-11; not fully specified; printed as Ac-PL3-Asp-Ala-B5-Asp-Asp-Ala-Ala-4C1F-Val-S8-Phe-Trp-Gln-NH2
notes: Ac-PL3-Asp-Ala-B5-Asp-Asp-Ala-Ala-4C1F-Val-S8-Phe-Trp-Gln-NH2; stapled peptide composition
B7: I-310 (peptide)
peptide: XDAXDDAAFVXFWQ
modifications: not fully specified; N-terminal acetyl (Ac); C-terminal amide (NH2); PL3 at 1, B5 at 4, S8 at 11, 3ClF (printed 3C1F) at 12; stapled PL3-B5 and B5-S8
notes: Ac-PL3-Asp-Ala-B5-Asp-Asp-Ala-Ala-Phe-Val-S8-3C1F-Trp-Gln-NH2; stapled peptide composition
B8: I-311 (peptide)
peptide: XDAXDDAAFVXFWQ
modifications: not fully specified; N-terminal acetyl (Ac); C-terminal amide (NH2); PL3 at 1, B5 at 4, S8 at 11, 3ClF (printed 3C1F) at 12; stapled PL3-B5 and B5-S8
notes: as for B7
B9: I-312 (peptide)
peptide: XDAXDDAAFVXFWQ
modifications: not fully specified; N-terminal acetyl (Ac); C-terminal amide (NH2); PL3 at 1, B5 at 4, S8 at 11, 4ClF (printed 4C1F) at 12; stapled PL3-B5 and B5-S8
notes: Ac-PL3-Asp-Ala-B5-Asp-Asp-Ala-Ala-Phe-Val-S8-4C1F-Trp-Gln-NH2; stapled peptide composition
B10: I-313 (peptide)
peptide: XDAXDDAAFVXFWQ
modifications: not fully specified; N-terminal acetyl (Ac); C-terminal amide (NH2); PL3 at 1, B5 at 4, S8 at 11, 4ClF (printed 4C1F) at 12; stapled PL3-B5 and B5-S8
notes: as for B9
B11: I-314 (peptide)
peptide: XHAXDEAAFVXFWQ
modifications: not fully specified; N-terminal acetyl (Ac); C-terminal amide (NH2); PL3 at 1, B5 at 4, S8 at 11; stapled PL3-B5 and B5-S8
notes: Ac-PL3-His-Ala-B5-Asp-Glu-Ala-Ala-Phe-Val-S8-Phe-Trp-Gln-NH2; stapled peptide composition
B12: I-315 (peptide)
peptide: XHAXDEAAFVXFWQ
modifications: not fully specified; N-terminal acetyl (Ac); C-terminal amide (NH2); PL3 at 1, B5 at 4, S8 at 11; stapled PL3-B5 and B5-S8
notes: as for B11
B13: I-317 (peptide)
peptide: Ac-[αAllylPro]DA[B5]DDAA[Phe(2-F)]V[S8]FWQ-NH2
modifications: staple 1-4, 4-11
notes: Ac-PL3-Asp-Ala-B5-Asp-Asp-Ala-Ala-2FF-Val-S8-Phe-Trp-Gln-NH2; stapled peptide composition
B14: I-318 (peptide)
peptide: XDAXDDAAFVXFWQ
modifications: not fully specified; N-terminal acetyl (Ac); C-terminal amide (NH2); PL3 at 1, B5 at 4, S8 at 11, 2FF at 12; stapled PL3-B5 and B5-S8
notes: Ac-PL3-Asp-Ala-B5-Asp-Asp-Ala-Ala-Phe-Val-S8-2FF-Trp-Gln-NH2; stapled peptide composition
B15: I-319 (peptide)
peptide: XDAXDDAAFVXFWQ
modifications: not fully specified; N-terminal acetyl (Ac); C-terminal amide (NH2); PL3 at 1, B5 at 4, S8 at 11, 2FF at 12; stapled PL3-B5 and B5-S8
notes: as for B14
B16: I-324 (peptide)
peptide: Ac-[αAllylPro]DA[B5(4)]D[Phe(4-NH2)]AAFV[S8]FWQ-NH2
modifications: staple 1-4, 4-11
notes: Ac-PL3-Asp-Ala-B5-Asp-4AmPhe-Ala-Ala-Phe-Val-S8-Phe-Trp-Gln-NH2; stapled peptide composition
B17: I-325 (peptide)
peptide: Ac-[αAllylPro]DA[B5(4)]DDAA[2Thi]V[S8]FWQ-NH2
modifications: staple 1-4, 4-11
notes: Ac-PL3-Asp-Ala-B5-Asp-Asp-Ala-Ala-2Thi-Val-S8-Phe-Trp-Gln-NH2; stapled peptide composition

Experiments:
[1] = target: T1, B-cat-Halo (beta-catenin HaloTag …); assay: cell-based or functional assay
[2] = target: T2, full-length beta-Catenin (Uniprot ID …); assay: AlphaScreen competition vs biotin-TCF4(10-53) on full-length beta-catenin
Outline: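 Titrated peptide was preincubated 15 minutes at 20° C, then donor and acceptor beads were added for 60 minutes at 20° C protected from light. Reads were done in duplicate, and data were fitted to a 1:1 binding model with Hill slope; concentrations are final.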

[3] = target: T2, full-length beta-Catenin (Uniprot ID …); assay: FP competition vs 5FAM-TCF4(10-53) probe on full-length beta-catenin
Experimental: The plate was incubated protected from light for 60 minutes at 20° C. prior to read. Reads were performed on a CLARIOstar plate reader (BMG Labtech) in duplicate, and data were fitted to a 1:1 binding model with hill slope using an in-house script. All provided concentrations are final concentrations.

Row | Binder | NanoBRET Abs IC50 [1] | EC50 [2] | EC50 [3]
1 | Ac-[αAllylPro]D[tBuAla][B5(4)]D[(EtSSHex)AspE]AAFL[PyrS2″][3Thi][Bta]Q-NH2 (staple 1-4, 4-11) [I-1962] | > 20000 nM | – | –
2 | B1 | – | 327 nM | 3130 nM
3 | B2 | – | 187 nM | 1870 nM
4 | B3 | – | 136 nM | 3980 nM
5 | B4 | – | 40 nM | 130 nM
6 | B5 | – | 189 nM | 1300 nM
7 | B6 | – | 181 nM | 3120 nM
8 | B7 | – | 3240 nM | –
9 | B8 | – | 1240 nM | –
10 | B9 | – | ≥ 10000 nM | –
11 | B10 | – | 3600 nM | –
12 | B11 | – | ≥ 10000 nM | –
13 | B12 | – | 9900 nM | –
14 | B13 | – | 443 nM | 5000 nM
15 | B14 | – | 121 nM | –
16 | B15 | – | 54 nM | –
17 | B16 | – | 1740 nM | –
18 | B17 | – | 53 nM | 1310 nM

Source: US20240116985A1 (published 2024)
